Substitutions are numbered along the chain they refer to. Numbers in names are those of the source.
Experiments:
platelets [1] = assay: Platelet aggregation in human platelet-rich plasma; assay type: cell-based
Procedure: After obtaining informed consent from volunteers, blood was collected via plastic tubing using acid citrate-dextrose (38 mM citric acid; 75 mM sodium citrate; 135 mM glucose) as anticoagulant. Where indicated, volunteers had ingested 650 mg acetylsalicylic acid (ASA) 18 h prior to blood donation. […] The stock suspension of PRP was maintained at room temperature under 5% CO2-air. […] Total volumes were adjusted to 300 μl with TSG buffer (Marcus et al., J. Clin. Invest. 88:1690, 1991; Marcus et al., J. Clin. Invest. 99:1351, 1997). […] A mock-treated sample was also prepared in which the FSBA solution was replaced with water. After incubating at 37° for 90 min., the samples were centrifuged in a Centricon-10 filter unit (Amicon Corp.) for 1 hour at 5,500 rpm and buffer exchanged into PBS to remove unreacted material.

[2] = Murine model of stroke (middle cerebral artery occlusion); assay type: in vivo, mice
Procedure: Anesthetized mice were maintained at 37±2° C. during and for 90 min following surgery. A midline neck incision was made and the right carotid artery exposed. Middle cerebral artery occlusion was accomplished by advancing a 13-mm heat-blunt tipped 6-0 nylon suture via an arteriotomy in the external carotid stump. The external carotid artery was cauterized to secure hemostasis, and arterial flow reestablished. […] Surgical staples were used for wound closure. […]

murine platelets = assay: Ex vivo aggregation of murine platelets; assay type: in vivo, C57BL/6J mice; conditions: PRP 1 hour after soluble CD39 4 mg/kg or aspirin 5 mg/kg
Procedure: C57BL/6J mice (6-8 wk) were obtained from Jackson Laboratories (Bar Harbor, Me.). […] 80 μL of 3.8% trisodium citrate was added to each mL of blood. […] The PRP contained 400-700×10^3 platelets per μL. All experiments were completed within 2 hours of blood collection. PRP (200 μL) was preincubated, for 3 min. at 37° C., with 100 μL Tris-buffered saline buffer ([…], 5 mM glucose, pH 7.4) in an aggregometer cuvette (Lumiaggregometer; Chrono-Log, Havertown, Pa.), and the platelet agonists ADP, collagen, or sodium arachidonate were added at the final concentrations indicated.

[3] = Phosphate release assay for ATPase activity; assay type: biochemical; conditions: for ATPase activity, CPM × 10^3 (net counts): Table 3, 5-day 1× COS-1 sups; for ATPase activity, CPM Release × 10^3 (net counts): unconcentrated COS-1 CM
Procedure: This example describes an ATPase assay that may be used to track enzyme activity. Samples (approximately 100 μl of either concentrated CM or purified polypeptide) are combined with 20 μl of 10× assay buffer (200 mM HEPES, 1.2 M NaCl, 50 mM KCl, 15 mM CaCl2, 15 mM MgCl2 and 3 mM ATP) and sterile water is added to a final volume of 200 μl. Radiolabeled ATP (0.8 μCi γ [^32P] ATP; Amersham, Arlington Heights, Ill.) is added and the mixture incubated for 20 minutes at 37° C. […] After centrifugation (14K rpm for 10 minutes), the supernatant is assayed for free ^32P using a scintillation counter. Data are expressed as raw counts or net counts, or as picomoles of ATP degraded per minute. […] The transfections were repeated and the CM (10, 20 and 30 μL, unconcentrated) was assayed essentially as described in Example 7. […] ATPase levels in CM from COS-1 cells transfected with pIL2LFlagSolCD39 increased with time in culture over at least 4 days post-transfection. To determine whether activity was affected by removal of the N-terminal FLAG® tag, COS-1 cells were transfected with pIL2LFlagSolCD39 and pIL2LSolCD39 and supernatants (sups) were harvested after 5 days. Samples of 10, 20 and 30 μL of 1× sups were assayed for ATPase activity as described in Example 7. […] The expression of Trim1 and Trim2 constructs was analyzed in COS-1 cells cultured in 10 cm plates. After 5 days of incubation, 1× supernatants were examined via ELISA (using anti-CD39) and the phosphate-release assay described in Example 7. […] Expression levels, however, appeared to be reduced 3-4 fold.

[4] = Phosphate release assay for ATPase activity; assay type: biochemical; conditions: 100 μL of 10-fold concentrated CM from COS-1 transfectants; 10× buffer with 30 mM cold ATP
[5] = Enzymatic (ATPase and ADPase) activity of site-directed mutants; assay type: biochemical
Procedure: Mutants were assayed for enzymatic (ATPase and ADPase) and platelet inhibitory (dose-dependent inhibition of platelet aggregation) activities. For one series of mutants, residues within the conserved apyrase regions were replaced with alanine.

platelets [6] = assay: Ex vivo additive inhibition of platelet aggregation in patient platelet rich plasma; assay type: cell-based, human; conditions: patient PRP, no SolCD39

COc1ccc2c(c1)c(CC(=O)O)c(C)n2C(=O)c1ccc(Cl)cc1 [indomethacin, reference compound]
platelet responsiveness to 5 μM ADP (platelets [1]; PRP with or without 10 μM indomethacin, CM containing solCD39 from COS-1 and CHO cells): partial reversal

CC(=O)Oc1ccccc1C(=O)O [Aspirin, acetylsalicylic acid, reference compound]
postischemic cerebral perfusion / blood flow ([2]; 24 hours after stroke induction): no improvement | intracerebral hemorrhage ([2]; following stroke, spectrophotometric): increased | cerebral infarct volume ([2]; preoperative administration, aspirin 5 mg/kg): not statistically significant | ex vivo platelet aggregation, collagen (murine platelets; 2.5 μg/ml collagen): strongly aggregated | ex vivo platelet aggregation, ADP (murine platelets; 10 μM ADP): strongly aggregated | ex vivo platelet aggregation, arachidonate (murine platelets; 0.1 mM sodium arachidonate): blocked

B1: pIL2LTrim1: huIL2 leader joined to solCD39 with an intervening alanine residue (SEQ ID NO:27) (protein)
chain: MALWIDRMQLLSCIALSLALVTNSATQNKALPENVKYGIVLDAGSSHTSLYIYKWPAEKENDTGVVHQVEECRVKGPGISKFVQKVNEIGIYLTDCMERAREVIPRSQHQETPVYLGATAGMRLLRMESEELADRVLDVVERSLSNYPFDFQGARIITGQEEGAYGWITINYLLGKFSQKTRWFSIVPYETNNQETFGALDLGGASTQVTFVPQNQTIESPDNALQFRLYGKDYNVYTHSFLCYGKDQALWQKLAKDIQVASNEILRDPCFHPGYKKVVNVSDLYKTPCTKRFEMTLPFQQFEIQGIGNYQQCHQSILELFNTSYCPYSQCAFNGIFLPPLQGDFGAFSAFYFVMKFLNLTSEKVSQEKVTEMMKKFCAQPWEEIKTSYAGVKEKYLSEYCFSGTYILSLLLQGYHFTADSWEHIHFIGKIQGSDAGWTLGYMLNLTNMIPAEQPLSTPLSHST
Activity (pmol ATP/min/μg) × 10^3 ([3]; specific activity in COS-1 CM, concentration by ELISA): 8.38 (pmol ATP/min/μg) × 10^3

B2: pIL2LFlagSolCD39: N-terminally FLAG-tagged solCD39 with human proinsulin/IL2 leader and 12 mature IL2 residues (SEQ ID NO:25) (protein)
chain: MALWIDRMQLLSCIALSLALVTNSAPTSSSTKKTQLTSSGDYKDDDDKTQNKALPENVKYGIVLDAGSSHTSLYIYKWPAEKENDTGVVHQVEECRVKGPGISKFVQKVNEIGIYLTDCMERAREVIPRSQHQETPVYLGATAGMRLLRMESEELADRVLDVVERSLSNYPFDFQGARIITGQEEGAYGWITINYLLGKFSQKTRWFSIVPYETNNQETFGALDLGGASTQVTFVPQNQTIESPDNALQFRLYGKDYNVYTHSFLCYGKDQALWQKLAKDIQVASNEILRDPCFHPGYKKVVNVSDLYKTPCTKRFEMTLPFQQFEIQGIGNYQQCHQSILELFNTSYCPYSQCAFNGIFLPPLQGDFGAFSAFYFVMKFLNLTSEKVSQEKVTEMMKKFCAQPWEEIKTSYAGVKEKYLSEYCFSGTYILSLLLQGYHFTADSWEHIHFIGKIQGSDAGWTLGYMLNLTNMIPAEQPLSTPLSHST
modifications: CDS (1)..(1461)
ATPase activity, CPM Release × 10^3 (raw counts) [4]: 99.96 CPM × 10^3 | ATPase activity, CPM × 10^3 (net counts) ([3]; 10 μL): 23.6 CPM × 10^3 | ATPase activity, CPM × 10^3 (net counts) ([3]; 20 μL): 40.2 CPM × 10^3 | ATPase activity, CPM × 10^3 (net counts) ([3]; 30 μL): 54.4 CPM × 10^3 | ATPase activity, CPM Release × 10^3 (net counts) ([3]; 10 μL): 24.71 CPM × 10^3 | ATPase activity, CPM Release × 10^3 (net counts) ([3]; 20 μL): 43.92 CPM × 10^3 | ATPase activity, CPM Release × 10^3 (net counts) ([3]; 30 μL): 56.93 CPM × 10^3

B3: E174A: CD39 mutant, Glutamate174 replaced with alanine (protein, UniProt P49961 1-510, looked up, variant E174A)
Ectonucleoside triphosphate …: MEDTKESNVKTFCSKNILAILGFSSIIAVIALLAVGLTQNKALPENVKYGIVLDAGSSHTSLYIYKWPAEKENDTGVVHQVEECRVKGPGISKFVQKVNEIGIYLTDCMERAREVIPRSQHQETPVYLGATAGMRLLRMESEELADRVLDVVERSLSNYPFDFQGARIITGQEAGAYGWITINYLLGKFSQKTRWFSIVPYETNNQETFGALDLGGASTQVTFVPQNQTIESPDNALQFRLYGKDYNVYTHSFLCYGKDQALWQKLAKDIQVASNEILRDPCFHPGYKKVVNVSDLYKTPCTKRFEMTLPFQQFEIQGIGNYQQCHQSILELFNTSYCPYSQCAFNGIFLPPLQGDFGAFSAFYFVMKFLNLTSEKVSQEKVTEMMKKFCAQPWEEIKTSYAGVKEKYLSEYCFSGTYILSLLLQGYHFTADSWEHIHFIGKIQGSDAGWTLGYMLNLTNMIPAEQPLSTPLSHSTYVFLMVLFSLVLFTVAIIGLLIFHKPSYFWKDMV
effect on platelet responsiveness (platelets [1]; mutant): no effect | enzymatic activity of mutant ([5]; alanine replacement in conserved apyrase region): completely devoid

B4: S218A: CD39 mutant, Serine218 replaced with alanine (protein, UniProt P49961 1-510, looked up, variant S218A)
Ectonucleoside triphosphate …: B3 Ectonucleoside triphosphate … with A174E, S218A
ADPase activity retained ([5]; mutant): less than 10%

B5: Abciximab: platelet-specific chimeric antibody, glycoprotein IIb/IIIa antagonist, trade name ReoPro (antibody, chains of the INN, looked up, V domains shown)
VH: EVQLQQSGTVLARPGASVKMSCEASGYTFTNYWMHWVKQRPGQGLEWIGAIYPGNSDTSYIQKFKGKAKLTAVTSTTSVYMELSSLTNEDSAVYYCTLYDGYYVFAYWGQGTLVTVSA
VL: EIVLTQSPVTLSVTPGDSVSLSCRASRDISNNLHWFQQTSHESPRLLIKYASQSMSGIPSRFSGSGSGTDFTLSINSVETEDFGMYFCQQTNSWPYTFGGGTKLEIK
modifications: Fab
notes: platelet-specific chimeric antibody, glycoprotein IIb/IIIa antagonist, trade name ReoPro
Platelet aggregation, baseline (platelets [6]; ADP, clopidogrel, ticlopidine, abciximab groups also received aspirin): 0 ± 0 arbitrary units | Platelet aggregation, baseline (platelets [6]; Collagen): 0 ± 0 arbitrary units | Platelet aggregation, baseline (platelets [6]; TRAP): 46 ± 6 arbitrary units

— patent US7264809B1, “Methods of inhibiting platelet activation and recruitment” (Immunex Corporation, priority 1998, dated 2007)
